Laboratory results reported in patent US20220017632A1 (HANX BIOPHARMACEUTICS, published 2022).

T1: human fusion protein hOX40-HIS (human, UniProt P43489 29-216, limits assumed)
T1 construct: it looks like the extracellular region; also called hOX40-HIS antigen; human OX40 antigen
T1 sequence: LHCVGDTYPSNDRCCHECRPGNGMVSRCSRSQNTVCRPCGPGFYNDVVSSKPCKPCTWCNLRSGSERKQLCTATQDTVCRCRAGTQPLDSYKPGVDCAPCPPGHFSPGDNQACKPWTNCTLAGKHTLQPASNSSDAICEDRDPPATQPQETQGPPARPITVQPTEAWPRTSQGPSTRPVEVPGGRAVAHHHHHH

T2: hOX40 protein on the cell membrane surface (293T-OX40 stably transfected cells) (human, UniProt P43489 29-277)
T2 construct: whole, on cells; also called hOX40 on the surface of the cell membrane; 293T cells expressing hOX40
T2 sequence (looked up): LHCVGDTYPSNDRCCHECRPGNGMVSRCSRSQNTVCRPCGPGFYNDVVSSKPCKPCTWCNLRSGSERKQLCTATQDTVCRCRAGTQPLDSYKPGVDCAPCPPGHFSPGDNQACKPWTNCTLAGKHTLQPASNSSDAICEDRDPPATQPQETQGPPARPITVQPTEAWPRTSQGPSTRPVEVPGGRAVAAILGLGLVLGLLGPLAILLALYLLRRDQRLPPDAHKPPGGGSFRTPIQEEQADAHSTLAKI

T3: murine OX40 antigen (murine, UniProt P47741 20-211, limits assumed)
T3 sequence (looked up): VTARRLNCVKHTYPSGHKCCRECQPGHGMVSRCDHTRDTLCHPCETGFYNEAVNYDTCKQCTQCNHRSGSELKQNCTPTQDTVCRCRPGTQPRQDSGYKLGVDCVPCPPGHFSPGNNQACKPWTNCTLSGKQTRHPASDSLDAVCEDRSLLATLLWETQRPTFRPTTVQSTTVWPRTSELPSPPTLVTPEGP


What was measured:
[1] = target: T1, human fusion protein hOX40-HIS; test: ELISA, coated hOX40-HIS 0.6 ug/ml
Description: (§1) 3) addition of the primary antibody: preparing the four antibodies to a concentration of 2 μg/ml, and diluting 1:5 from the 2 μg/ml as the starting concentration to 7 gradient concentrations (that is, the concentrations of 2μg/ml, 400 ng/ml, 80 ng/ml, 16 ng/ml, 3.2 ng/ml, 0.64 ng/ml, 0.128 ng/ml, respectively). The prepared primary antibodies were added individually, and incubated at 30° C. for 1 hour; PBS was used as the blank control group;
The ELISA test results are shown in Table 1, in which, the EC₅₀ value represents the half-maximal effect concentration, that is, the concentration that can cause 50% of the maximum effect.

[2] = target: T2, hOX40 protein on the cell membrane …; test: flow cytometry on 293T-OX40 cells
Description: In this experiment, 293T-OX40 stably transfected cell lines were used as the experimental cells, and the FACS method was used to detect the binding of 9C12 to the hOX40 protein on the cell membrane surface. The specific procedure is as follows:
293T cells expressing hOX40 were digested, and prepared to a final concentration of 10⁶ cells/ml. 100 μl of cell suspension from each group was added into a 1.5 ml EP tube. Various concentrations of 9C12 antibody (10000 ng/ml, 4000 ng/ml, 2000 ng/ml, 1000 ng/ml, 500 ng/ml, 200 ng/ml, 20 ng/ml, 2 ng/ml) were added, and incubated on ice for 1 hour. After 1 hour, the tube was washed with HBSS once. Each group was added with prepared APC goat anti-human IgG secondary antibody, incubated on ice for 20 minutes in the dark, washed once with HBSS, and finally suspended with 200 μl of HBSS, and the cells were tested.

[3] = target: T1, human fusion protein hOX40-HIS; test: ELISA, coated human OX40-HIS 0.25 ug/ml
Description: (§2) Human OX40 antigen, monkey OX40 antigen and murine OX40 antigen were used for coating respectively to detect whether OX40 antibody cross-reacts with OX40 protein of different species, through the following steps:
(§3) 3) addition of the primary antibody: preparing antibody 9C12 to a concentration of 2 μg/ml, and diluting 1:5 from the 2 μg/ml as the starting concentration to […] 7 gradient concentrations (that is, the concentrations of 2 μg/ml, 400 ng/ml, 80 ng/ml, 16 ng/ml, 3.2 ng/ml, 0.64 ng/ml, 0.128 ng/ml, respectively). PBS was used as the blank control group. The prepared primary antibodies were added individually, and incubated at 30° C. for 1 hour;

[4] = target: T3, murine OX40 antigen; test: ELISA, coated murine OX40 antigen 0.25 ug/ml
Description: as §2, §3

[5] = target: T4, monkey OX40 antigen (monkey); test: ELISA, coated monkey OX40-HIS 0.25 ug/ml
T4 construct: also called Monkey OX40-HIS antigen
Description: as §2, §3

[6] = target: T1, human fusion protein hOX40-HIS; test: ELISA, coated hOX40-HIS; antibody 16 ng/ml; well 1
Description: (§4) For the hybridoma antibodies prepared in Example 1, the specific binding of different antibodies to hOX40 was detected by the following steps:
as §1

[7] = target: T1, human fusion protein hOX40-HIS; test: ELISA, coated hOX40-HIS; antibody 16 ng/ml; well 2
Description: as §4, §1

[8] = target: T1, human fusion protein hOX40-HIS; test: ELISA, coated hOX40-HIS; antibody 80 ng/ml; well 1
Description: as §4, §1

[9] = target: T1, human fusion protein hOX40-HIS; test: ELISA, coated hOX40-HIS; antibody 80 ng/ml; well 2
Description: as §4, §1

[10] = target: T1, human fusion protein hOX40-HIS; test: ELISA, coated hOX40-HIS; antibody 3.2 ng/ml; well 1
Description: as §4, §1

[11] = target: T1, human fusion protein hOX40-HIS; test: ELISA, coated hOX40-HIS; antibody 3.2 ng/ml; well 2
Description: as §4, §1

[12] = target: T1, human fusion protein hOX40-HIS; test: ELISA, coated hOX40-HIS; antibody 400 ng/ml; well 1
Description: as §4, §1

[13] = target: T1, human fusion protein hOX40-HIS; test: ELISA, coated hOX40-HIS; antibody 400 ng/ml; well 2
Description: as §4, §1

[14] = target: T1, human fusion protein hOX40-HIS; test: ELISA, coated hOX40-HIS; antibody 0.64 ng/ml; well 1
Description: as §4, §1

[15] = target: T1, human fusion protein hOX40-HIS; test: ELISA, coated hOX40-HIS; antibody 0.64 ng/ml; well 2
Description: as §4, §1

[16] = target: T1, human fusion protein hOX40-HIS; test: ELISA, coated hOX40-HIS; antibody 2000 ng/ml; well 1
Description: as §4, §1

[17] = target: T1, human fusion protein hOX40-HIS; test: ELISA, coated hOX40-HIS; antibody 2000 ng/ml; well 2
Description: as §4, §1

[18] = target: T1, human fusion protein hOX40-HIS; test: ELISA, coated hOX40-HIS; antibody 0.128 ng/ml; well 1
Description: as §4, §1

[19] = target: T1, human fusion protein hOX40-HIS; test: ELISA, coated hOX40-HIS; antibody 0.128 ng/ml; well 2
Description: as §4, §1

[20] = target: T1, human fusion protein hOX40-HIS; test: SPR, ProteOn XPR, hOX40-HIS immobilized on GLM chip, antibody as analyte
Description: The ProteOn XPR molecular interaction instrument may be used to detect the kinetics and affinity constants of the interaction between different drugs and a variety of different target proteins. 250 nM hOX40-HIS antigen ([…] hOX40 antigen) was immobilized on the surface of the GLM chip, and after equilibrating in PBST, was allowed to bind to the antibody 9C12 diluted twice in PBST to the concentration of 50, 25, 12.5, 6.25, 3.125, 0 nM, respectively, and then dissociated in PBST.

EC50 [1] [nM]	absorbance at 450 nm [6]	absorbance at 450 nm [7]	absorbance at 450 nm [8]	absorbance at 450 nm [9]	absorbance at 450 nm [10]	absorbance at 450 nm [11]	absorbance at 450 nm [12]	absorbance at 450 nm [13]	absorbance at 450 nm [14]	absorbance at 450 nm [15]	absorbance at 450 nm [16]	absorbance at 450 nm [17]	absorbance at 450 nm [18]	absorbance at 450 nm [19]	Kd [20] [nM]	koff [20] [s⁻¹]	kon [20] [M⁻¹ s⁻¹]	Binder	further results
0.017	2.4	2.25	2.59	2.51	1.58	1.51	2.59	2.52	0.464	0.464	2.72	2.68	0.147	0.138	0.151	6.73e-05	445000	antibody 9C12 (antibody, V domains shown, Purified mouse hybridoma antibody; also called 9C12 antibody; 9C12 Ab) VH: QVQLQQSGGGLVKPGGSLKLSCAASGFTFSDYYMYWVRQTPEKRLEWVATISDGGSNTYYPDSVKGRFTISRDNAKNNLYLQMSSLKSEDTATYYCARRGTGTGFGYWGQGTLVTVSA VL: DIVLTQTTASLSVSVGETVTITCRASENIYSTLAWYQQKQGKSPQLLVYAATNLVAGVPSRFSGSGSGTQYSLKINSLQSEDFGSYYCQHFWGIPWTFGGGTKLEIK	EC50 [2]: 2.84 nM; EC50 [3]: 0.012 nM; binding result [4]: no binding (tested: 2000 ng/ml); EC50 [5]: 0.01 nM
10.8	0.104	0.123	0.316	0.287	0.061	0.066	1.11	1.12	0.051	0.053	2.95	3.08	0.053	0.052	–	–	–	antibody 1D9 (antibody, V domains shown, Purified mouse hybridoma antibody; also called 1D9 antibody; 1D9 Ab) VH: EVQLQQSGPELVKPGALVKISCKASGYTFTNYDINWVKQRPGQGLEWIGWIYPEDGSTKYNEKFKGKATLTADKSSSTAYMQLSSLTSENSAVYFCARDTRGYFDYWGQGTTLTVSS VL: DIVMTQTTAIMSASLGEKVTMSCRASSSVNYIYWYQQKSDASPKLWIYYTSNLAPGVPARFSGSGSGNSYSLTISSMEGEDAATYYCQQFTSSPWTFGGGTKLEFKR	–
0.727	0.272	0.288	0.894	0.87	0.096	0.094	1.64	1.66	0.059	0.058	1.93	1.98	0.05	0.056	20.8	0.000567	27300	antibody 8A7 (antibody, V domains shown, Purified mouse hybridoma antibody; also called 8A7 antibody; 8A7 Ab) VH: QVQLQESGPSHVKPSQTLSLTCSVTGDSITSGYWNWIRKFPGNKLEYLGYISFSGNTYYNPSLKSRISIIRDTSKNQYYLQLNSVTTEDTATYYCARYPYSYSNWDYAMDYWGQGTSVTVSS VL: DIVMTQSPSSLVVSVGEKVTMSCKSSQFLLYSSSQKNYLAWYQQKPGQSPQLLIYWASTRESGVPDRFTGSGSGTDFTLTISSVKAEDLAVYYCHQYYSYPLTFGAGTKLELK	–
